Experimental data reported in US10004800.
pKd: −log10 of the molar value.

Columns and labels:
[1] = target: B.63521 (HIV-1); experiment: SPR
[2] = target: C.CH505 (HIV-1); experiment: SPR

CH103
pKd [1]: 8.62
pKd [2]: 7.70

CH104
pKd [1]: 8.15
pKd [2]: 8.05

CH105
pKd [1]: 8.15
pKd [2]: 8.13

CH106
pKd [1]: 8.29
pKd [2]: 8.24
